Assays:
[1] = biological target: T1, GDF11 (Homo sapiens, UniProt O95390); assay: A204 cell-based pGL3(CAGA)12 reporter gene assay, signaling by GDF11; conditions: for Inhibitory Potency of Homodimeric ActRIIB-Fc Constructs IC50 GDF11: Table 5, A204 cells, luciferase reporter, ND: not detectable over concentration range tested
T1 sequence (O95390 299-407): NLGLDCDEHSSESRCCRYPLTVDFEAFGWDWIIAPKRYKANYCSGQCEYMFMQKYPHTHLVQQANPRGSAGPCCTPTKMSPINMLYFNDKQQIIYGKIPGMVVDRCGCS
Excerpt: (§1) To determine activity of variant ActRIIB-Fc polypeptides, an A204 cell-based assay was used to compare effects among variant ActRIIB-Fc polypeptides on signaling by activin A, activin B, GDF8, GDF11, BMP9, and BMP10, in comparison to ActRIIB-G1Fc. In brief, this assay uses a human A204 rhabdomyosarcoma cell line (ATCC®: HTB-82™) derived from muscle and the reporter vector pGL3(CAGA)12 (Dennler et al., 1998, EMBO 17: 3091-3100) as well as a Renilla reporter plasmid (pRLCMV) to control for transfection efficiency. The CAGA12 motif is present in TGF-β responsive genes (e.g., PAI-1 gene), so this vector is of general use for ligands that can signal through Smad2/3, including activin A. GDF11, and BMP9.
(§2) On day 1. A204 cells were transferred into one or more 48-well plates. On day 2, these cells were transfected with 10 μg pGL3(CAGA)12 or pGL3(CAGA)12(10 μg)+pRLCMV (1 pg) and Fugene. On day 3, ligands diluted in medium containing 0.1% BSA were preincubated with ActRIIB-Fc polypeptides for 1 hr before addition to cells. Approximately six hour later, the cells were rinsed with PBS and lysed. Cell lysates were analyzed in a luciferase assay to determine the extent of Smad activation.
(§3) This assay was used to screen variant ActRIIB-Fc polypeptides for inhibitory effects on cell signaling by activin A, activin B. GDF8, GDF11. BMP9, and BMP10. Potencies of homodimeric Fc fusion polypeptides incorporating amino acid substitutions in the human ActRIIB extracellular domain were compared with that of an Fc fusion polypeptide comprising unmodified human ActRIIB extracellular domain, ActRIIB-G1Fc. For some variants tested, it was not possible to calculate an accurate IC50, but signs of inhibition in the slope of the curves were detectable. For these variants, an estimate was included of the order of magnitude of the relative IC50, i.e. >10 nM or >100 nM instead of a definite number. Such data points are indicated by a (*) in Table 3 below. For some variants tested, there was no detectable inhibition in the slope of the curves over the concentration range tested, which is indicated by “ND” in Table 4.
as §1, with “A,” for “A, activin B, GDF8,”, “GDF11,” for “GDF11, BMP9,”, “and BMP9.” for “and BMP10, in comparison to ActRIIB-G1Fc.”, “(Dennler el” for “(Dennler et”, “activin A,” for “activin A.”
as §2, with “1, A-204” for “1. A204”, “μg)” for “pg)”
(§4) This assay was used to screen variant ActRIIB-Fc polypeptides for inhibitory effects on cell signaling by activin A, GDF11, and BMP9. Potencies of homodimeric Fc fusion polypeptides incorporating amino acid substitutions in the human ActRIIB extracellular domain were compared with that of an Fc fusion polypeptide comprising unmodified human ActRIIB extracellular domain.

[2] = biological target: T2, Activin A (Homo sapiens, UniProt P08476); assay: A204 cell-based pGL3(CAGA)12 reporter gene assay, signaling by activin A; conditions: for Inhibitory Potency of Homodimeric ActRIIB-Fc Constructs IC50 Activin A: Table 5, A204 cells, luciferase reporter
T2 sequence (P08476 311-426): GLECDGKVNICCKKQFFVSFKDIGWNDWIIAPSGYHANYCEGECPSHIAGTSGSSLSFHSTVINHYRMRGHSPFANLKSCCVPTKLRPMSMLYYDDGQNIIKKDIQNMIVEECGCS
Excerpt: as §1, §2, §3
as §1, with “A,” for “A, activin B, GDF8,”, “GDF11,” for “GDF11, BMP9,”, “and BMP9.” for “and BMP10, in comparison to ActRIIB-G1Fc.”, “(Dennler el” for “(Dennler et”, “activin A,” for “activin A.”
as §2, with “1, A-204” for “1. A204”, “μg)” for “pg)”
as §4

[3] = biological target: T3, BMP9 (Homo sapiens, UniProt Q9UK05); assay: Biacore-based binding assay (surface plasmon resonance), BMP9; conditions: SPR 37° C., FIG. 9, compared to Fc fusion with unmodified ActRIIB extracellular domain
T3 sequence (Q9UK05 320-429): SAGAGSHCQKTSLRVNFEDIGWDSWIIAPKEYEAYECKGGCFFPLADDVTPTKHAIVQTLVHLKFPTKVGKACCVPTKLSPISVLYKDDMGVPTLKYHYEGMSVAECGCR
Protocol: (§5) To determine ligand binding profiles of variant ActRIIB-Fc homodimers, a Biacore™-based binding assay was used to compare ligand binding kinetics of certain variant ActRIIB-Fc polypeptides. ActRIIB-Fc polypeptides to be tested were independently captured onto the system using an anti-Fc antibody. Ligands were then injected and allowed to flow over the captured receptor protein. ActRIIB-G1Fc was used as the control polypeptide.
as §5, with “protein.” for “protein. ActRIIB-G1Fc was used as the control polypeptide.”
A Biacore™-based binding assay was used to compare the ligand binding kinetics of an ActRIIB-Fc:ActRIIB(L79E)-Fc heterodimer with those of unmodified ActRIIB-Fc homodimer. Fusion proteins were captured onto the system using an anti-Fc antibody. Ligands were then injected and allowed to flow over the captured receptor protein at 37° C. Results are summarized in the table below, in which ligand off-rates (kd) most indicative of effective ligand traps are denoted in bold.

[4] = biological target: T3, BMP9; assay: A204 cell-based pGL3(CAGA)12 reporter gene assay, signaling by BMP9; conditions: for Inhibitory Potency of Homodimeric ActRIIB-Fc Constructs IC50 BMP9: Table 5, A204 cells, luciferase reporter, ND: not detectable over concentration range tested
Excerpt: as §1, §2, §3
as §1, with “A,” for “A, activin B, GDF8,”, “GDF11,” for “GDF11, BMP9,”, “and BMP9.” for “and BMP10, in comparison to ActRIIB-G1Fc.”, “(Dennler el” for “(Dennler et”, “activin A,” for “activin A.”
as §2, with “1, A-204” for “1. A204”, “μg)” for “pg)”
as §4

[5] = biological target: T4, GDF11 (UniProt O95390 299-407); assay: cell-based or functional assay
T4 construct: also called Growth and differentiation factor-11; BMP11
T4 sequence (looked up): T1 sequence (O95390 299-407)

Substance	Inhibitory Potency of Homodimeric ActRIIB-Fc Constructs IC50 GDF11 [1]	Inhibitory Potency of Homodimeric ActRIIB-Fc Constructs IC50 Activin A [2]	Inhibitory Potency of Homodimeric ActRIIB-Fc Constructs IC50 BMP9 [4]	other results
F82I: homodimeric ActRIIB-G1Fc fusion with F82I substitution; mature SEQ ID NO: 39	–	–	–	inhibition of GDF11 compared to fusion polypeptide with unmodified ActRIIB extracellular domain (in words) ([1]; A204 reporter gene assay): essentially undiminished inhibition of activin A and GDF11; inhibition of activin A compared to fusion polypeptide with unmodified ActRIIB extracellular domain (in words) ([2]; A204 reporter gene assay): essentially undiminished inhibition of activin A and GDF11; reduction in affinity for BMP9 compared with reduction in affinity for GDF11 or activin A [3]: reduce ActRIIB binding affinity for BMP9 more than they reduce ActRIIB affinity for activin A or GDF11; reduction in affinity for BMP9 compared with reduction in affinity for GDF11 or activin A ([3]; listed as ActRIIB(F82I)-Fc): greater reduction in their affinity for BMP9 than for GDF11; inhibition of BMP9 compared to fusion polypeptide with unmodified ActRIIB extracellular domain (in words) ([4]; A204 reporter gene assay): less potent inhibition of BMP9; selectivity of antagonism (activin A and GDF11 over BMP9) compared to unmodified ActRIIB-Fc ([4]; A204 reporter gene assay): more selective antagonists of activin A and GDF11
E50P: homodimeric ActRIIB-Fc fusion, E50P substitution in human ActRIIB extracellular domain	0.638 µg/mL	0.756 µg/mL	~3 µg/mL	–
L79R (homodimeric ActRIIB-Fc construct) (Fc fusion)	–	–	–	IC50 (ng/ml), A204 CAGA12 luciferase reporter assay [5]: 234 ng/mL
E52A: homodimeric ActRIIB-Fc fusion, E52A substitution in human ActRIIB extracellular domain	0.071 µg/mL	0.198 µg/mL	0.359 µg/mL	–
L79R: homodimeric ActRIIB-Fc fusion, L79R substitution in human ActRIIB extracellular domain	0.234 µg/mL	–	–	–
K55D: homodimeric ActRIIB-Fc fusion, K55D substitution in human ActRIIB extracellular domain	0.365 µg/mL	0.396 µg/mL	5.5 µg/mL	–
Y60P: homodimeric ActRIIB-Fc fusion, Y60P substitution in human ActRIIB extracellular domain	0.544 µg/mL	–	–	–
F82W/N83A: homodimeric ActRIIB-Fc fusion, F82W and N83A substitutions in human ActRIIB extracellular domain	0.389 µg/mL	–	~40 µg/mL	–
E52K: homodimeric ActRIIB-Fc fusion, E52K substitution in human ActRIIB extracellular domain	0.296 µg/mL	0.762 µg/mL	~10 µg/mL	–
F82W (homodimeric ActRIIB-Fc construct) (Fc fusion)	–	–	–	IC50 (ng/ml), A204 CAGA12 luciferase reporter assay [5]: 276 ng/mL
K55R: homodimeric ActRIIB-Fc fusion, K55R substitution in human ActRIIB extracellular domain	0.318 µg/mL	0.206 µg/mL	0.777 µg/mL	–
R40A: homodimeric ActRIIB-Fc fusion, R40A substitution in human ActRIIB extracellular domain	0.591 µg/mL	–	1.21 µg/mL	–
Y60K (homodimeric ActRIIB-Fc construct) (Fc fusion)	–	–	–	IC50 (ng/ml), A204 CAGA12 luciferase reporter assay [5]: 414 ng/mL
K74R: homodimeric ActRIIB-Fc fusion, K74R substitution in human ActRIIB extracellular domain	0.045 µg/mL	–	0.165 µg/mL	–
Y60P (homodimeric ActRIIB-Fc construct) (Fc fusion)	–	–	–	IC50 (ng/ml), A204 CAGA12 luciferase reporter assay [5]: 544 ng/mL
E50K: homodimeric ActRIIB-Fc fusion, E50K substitution in human ActRIIB extracellular domain	0.18 µg/mL	0.132 µg/mL	0.721 µg/mL	–
Y60K: homodimeric ActRIIB-Fc fusion, Y60K substitution in human ActRIIB extracellular domain	0.414 µg/mL	–	–	–
F82W: homodimeric ActRIIB-Fc fusion, F82W substitution in human ActRIIB extracellular domain	0.276 µg/mL	–	–	–
A24N: homodimeric ActRIIB-Fc fusion, A24N substitution in human ActRIIB extracellular domain	0.099 µg/mL	0.128 µg/mL	0.409 µg/mL	–

— patent US20240181007A1, “COMPOSITIONS AND METHODS FOR TREATING PULMONARY HYPERTENSION” (Acceleron Pharma Inc., priority 2021, published 2024)
